T1: hVEGF-A (8-109) (human, UniProt P15692 214-315)
T1 sequence (looked up): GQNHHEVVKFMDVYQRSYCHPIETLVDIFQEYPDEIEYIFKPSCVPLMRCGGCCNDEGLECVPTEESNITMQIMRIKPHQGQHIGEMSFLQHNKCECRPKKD


How the values were obtained:
hVEGF-A (8-109) [1] = molecular target: T1, hVEGF-A (8-109); assay: spot phage ELISA
Procedure: After four rounds of binding selection, individual phage clones were picked and inoculated into 450 μl 2YT media containing 50 µg/ml Carbenecillin and M13-KO7 helper phage in 96-well blocks, which were grown at 37° C. overnight. […] The plates were washed and bound phage was detected with anti-M13-HRP followed by TMB substrate. In these assays, phage binding to BSA alone was tested in parallel to assess background binding. […] Positive clones were subjected to DNA sequence analysis.

hVEGF-A (8-109) [2] = molecular target: T1, hVEGF-A (8-109); assay: spot phage ELISA; remark: listed apart in the source

Binder	ELISA (hVEGF-A (8-109) [1])	S/N vs BSA (hVEGF-A (8-109) [1])	binding result (hVEGF-A (8-109) [2])
GCQLMHPFWGCKQDSDCLAGCVCHWYRSCG (designed binder) [VEGF_CKP8]	3.9	59.4	
GCNIMLPFWGCGPELNCLAGCVCQYYQSCG (designed binder) [VEGF_CKP9.54.12]	2.4	38.8	
GCNIMLPFWGCQADYACLAGCVCQYYQSCG (designed binder) [VEGF_CKP9.54.14]	2.5	23.5	
GCNIMLPFWGCGVDYLCLAGCVCQYYQSCG (designed binder) [VEGF_CKP9.54.16]	2.4	30.8	
GCNIMLPFWGCGTNFLCLAGCVCQYYQSCG (designed binder) [VEGF_CKP9.54.31]	2.3	32.5	
GCNIMLPFWGCGRDFECLAGCVCQYYQSCGLS (designed binder) [9.54.90-2x42]			binds
GCNIMLPFWGCGRDFECLAGCVCQYYQSCGVH (designed binder) [9.54.90-2x90]			binds
GCDVMQPYWGCEMDFDCLAGCVCHWYNSCGSL (designed binder) [9.63-36]			binds
GCDVMQPYWGCKQDFDCLAGCVCHWYNSCGPS (designed binder) [9.63-1]			binds
GCDVMQPYWGCEMDFDCLAGCVCHWYNSCGGK (designed binder) [9.63-7]			binds
GCDVMQPYWGCKQDFDCLAGCICHWYNSCGYL (designed binder) [9.63-10]			binds
GCDVMQPYWGCEMDFDCLAGCVCHWYNSCGDL (designed binder) [9.63-16]			binds
GCDVMQPYWGCEMDFDCLAGCVCHWYNSCGEK (designed binder) [9.63-17]			binds
GCDVMQPYWGCKQDSDCLAGCICHWYNSCGTD (designed binder) [9.63-19]			binds
GCDVMQPYWGCEMDFDCLAGCVCHWYNSCGRL (designed binder) [9.63-21]			binds
GCDVMQPYWGCEMDFDCLAGCICHWYNSCGAS (designed binder) [9.63-23]			binds
GCDVMQPYWGCEMDFDCLAGCICHWYNSCGPT (designed binder) [9.63-30]			binds
GCDVMQPYWGCEMDFDCLAGCVCHWYNSCGWD (designed binder) [9.63-40]			binds
GCDVMQPYWGCEMDFDCLAGCVCHWYNSCGSM (designed binder) [9.63-45]			binds

Binder	ELISA (hVEGF-A (8-109) [1])	S/N vs BSA (hVEGF-A (8-109) [1])	binding result (hVEGF-A (8-109) [2])
GCDVMQPYWGCEMDFDCLAGCICHWYNSCGTR (designed binder) [9.63-61]			binds
GCDVMQPYWGCKQDSDCLAGCVCHWYNSCGEN (designed binder) [9.63-62]			binds
GCDVMQPYWGCEMDFDCLAGCVCHWYNSCGNN (designed binder) [9.63-65]			binds
GCDVMQPYWGCEMDFDCLAGCICHWYNSCGPE (designed binder) [9.63-66]			binds
GCDVMQPYWGCEMDFDCLAGCVCHWYNSCGVE (designed binder) [9.63-68]			binds
GCDVMQPYWGCEMDFDCLAGCICHWYNSCGRP (designed binder) [9.63-74]			binds
GCDVMQPYWGCEMDFDCLAGCVCHWYNSCGND (designed binder) [9.63-77]			binds
GCDVMQPYWGCEMDFDCLAGCICHWYNSCGDE (designed binder) [9.63-93]			binds
GCDVMQPYWGCEMDFDCLAGCICHWYNSCGRT (designed binder) [9.63.44-2-A]			binds
GCDVMQPYWGCEMDFDCLAGCVCHWYNSCGVN (designed binder) [9.63.44-14 (SEQ ID NO: 514)]			binds
GCDVMQPYWGCEMDFDCLAGCVCHWYNSCGEP (designed binder) [9.63.44-16]			binds
GCDVMQPYWGCEMDFDCLAGCVCHWYNSCGGQ (designed binder) [9.63.44-19]			binds
GCDVMQPYWGCEMDFDCLAGCVCHWYNSCGST (designed binder) [9.63.44-41]			binds
GCDVMQPYWGCEMDFDCLAGCVCHWYNSCGTP (designed binder) [9.63.44-44]			binds
GCDVMQPYWGCEMDFDCLAGCVCHWYNSCGYM (designed binder) [9.63.44-54]			binds
GCDVMQPYWGCEIDFDCLAGCVCHWYNSCGQV (designed binder) [9.63.44-55]			binds
GCDVMQPYWGCEMDFDCLAGCVCHWYNSCGFN (designed binder) [9.63.44-73]			binds
GCDVMQPYWGCEMDFDCLAGCVCHWYNSCGNS (designed binder) [9.63.44-80]			binds
GCDVMQPYWGCEMDFDCLAGCVCHWYNSCGRY (designed binder) [9.63.44-82]			binds

Binder	ELISA (hVEGF-A (8-109) [1])	S/N vs BSA (hVEGF-A (8-109) [1])	binding result (hVEGF-A (8-109) [2])
GCNIMLPFWGCGRDFECLAGCVCQYYQSCGPLQ (designed binder) [9.54.90-3x49]			binds
GCNIMLPFWGCGRDFECLAGCVCQYYQSCGNYQ (designed binder) [9.54.90-3X50]			binds
GCNIMLPFWGCGRDFECLAGCVCQYYQSCGPLI (designed binder) [9.54.90-3X83]			binds
GCNIMLPFWGCGRDFECLAGCVCQYYQSCGWDY (designed binder) [9.54.90-3x9]			binds
GCNIMLPFWGCGRDFECLAGCVCQYYQSCGTFQ (designed binder) [9.54.90-3x10]			binds
GCNIMLPFWGCGRDFECLAGCVCQYYQSCGWPH (designed binder) [9.54.90-3x13]			binds
GCNIMLPFWGCGRDFECLAGCVCQYYQSCGPHQ (designed binder) [9.54.90-3x33]			binds
GCNIMLPFWGCGRDFECLAGCVCQYYQSCGEHK (designed binder) [9.54.90-3x42]			binds
GCNIMLPFWGCGRDFECLAGCVCQYYQSCGYLS (designed binder) [9.54.90-3x88]			binds
GCNIMLPFWGCGRDFECLAGCVCQYYQSCGDLV (designed binder) [9.54.90-3x91]			binds
GCDVLQPYWGCGPDIDCLSNCICHWYNSCGRL (designed binder) [63.12.12.M5L.2x21]			binds
GCDVLQPYWGCGPDIDCLSNCICHWYNSCGRT (designed binder) [63.12.12.M5L.2x2]			binds
GCDVLQPYWGCGPDIDCLSNCICHWYNSCGEQ (designed binder) [63.12.12.M5L.2x12]			binds
GCDVLQPYWGCGPDIDCLSNCICHWYNSCGDE (designed binder) [63.12.12.M5L.2x25]			binds
GCDVLQPYWGCGPDIDCLSNCICHWYNSCGSL (designed binder) [63.12.12.M5L.2x29]			binds
GCDVLQPYWGCGPDIDCLSNCICHWYNSCGPT (designed binder) [63.12.12.M5L.2x30]			binds
GCDVLQPYWGCGPDIDCLSNCICHWYNSCGPL (designed binder) [63.12.12.M5L.2x48]			binds
GCDVLQPYWGCGPDIDCLSNCICHWYNSCGQF (designed binder) [63.12.12.M5L.2x69]			binds
GCDVLQPYWGCGPDIDCLSNCICHWYNSCGWK (designed binder) [63.12.12.M5L.2x77]			binds
